{
  "source": "paper PMC7736783",
  "about": "(Nucleic Acids Research, 2020)",
  "binders": {"B1": {"name": "methylated DNA duplex 15 nt (dsDNA)", "DNA 1": "GGAATCGGCTCATGC", "DNA 2": "GCATGAGCCGATTCC", "modifications": "5-methylcytosine at C6 of strand 1 (printed mC in CpG); methylation of the complementary strand not stated"}},
  "target": "MTA1 (BAH-ELM2-SANT-ZnF);HDAC1;MBD2 (Homo sapiens?;Homo sapiens?;Homo …, UniProt Q13330;Q13547;Q9UBB5 1-453;1-482;145-411, ||)",
  "sequence (Q13330 1-453, chain 1 of 3)": "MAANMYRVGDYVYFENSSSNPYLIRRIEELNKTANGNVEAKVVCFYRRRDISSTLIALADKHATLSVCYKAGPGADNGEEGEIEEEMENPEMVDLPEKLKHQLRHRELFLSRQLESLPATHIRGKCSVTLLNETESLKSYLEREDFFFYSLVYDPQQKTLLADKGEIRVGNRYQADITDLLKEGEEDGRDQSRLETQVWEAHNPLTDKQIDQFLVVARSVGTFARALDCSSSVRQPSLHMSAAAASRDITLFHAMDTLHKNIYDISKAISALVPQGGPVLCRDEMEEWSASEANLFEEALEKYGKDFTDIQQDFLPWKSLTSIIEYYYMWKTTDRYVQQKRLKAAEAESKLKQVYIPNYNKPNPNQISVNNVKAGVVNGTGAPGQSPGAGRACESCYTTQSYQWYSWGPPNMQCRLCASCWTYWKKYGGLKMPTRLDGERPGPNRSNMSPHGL",
  "sequence (Q13547 whole entry, chain 2 of 3)": "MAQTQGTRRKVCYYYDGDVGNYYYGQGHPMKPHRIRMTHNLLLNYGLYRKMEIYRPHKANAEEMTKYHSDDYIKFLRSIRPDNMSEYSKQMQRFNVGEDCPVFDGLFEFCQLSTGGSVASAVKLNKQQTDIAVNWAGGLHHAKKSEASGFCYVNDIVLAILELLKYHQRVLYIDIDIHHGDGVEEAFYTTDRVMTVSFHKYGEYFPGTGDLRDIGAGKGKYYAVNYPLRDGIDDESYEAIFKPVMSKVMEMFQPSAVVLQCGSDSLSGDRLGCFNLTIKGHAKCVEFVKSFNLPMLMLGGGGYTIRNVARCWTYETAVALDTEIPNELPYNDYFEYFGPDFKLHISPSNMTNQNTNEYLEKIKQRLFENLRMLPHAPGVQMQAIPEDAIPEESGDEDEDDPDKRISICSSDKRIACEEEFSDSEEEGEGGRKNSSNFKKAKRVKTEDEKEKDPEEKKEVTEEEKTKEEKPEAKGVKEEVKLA",
  "sequence (Q9UBB5 145-411, chain 3 of 3)": "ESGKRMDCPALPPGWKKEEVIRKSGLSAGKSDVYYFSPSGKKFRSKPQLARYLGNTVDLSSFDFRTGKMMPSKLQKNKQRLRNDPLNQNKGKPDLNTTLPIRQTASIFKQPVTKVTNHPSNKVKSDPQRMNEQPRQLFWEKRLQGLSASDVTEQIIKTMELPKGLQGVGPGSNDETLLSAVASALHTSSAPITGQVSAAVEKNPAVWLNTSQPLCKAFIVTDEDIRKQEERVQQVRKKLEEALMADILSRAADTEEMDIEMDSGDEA",
  "test": "EMSA; 1 uM DNA with 1- to 10-fold excess of complex; single bound species; EMSA: 20 mM HEPES pH 7.0, 75 mM potassium acetate, 2 mM DTT, 20 min on ice; 5% acrylamide gel in 0.5x TB",
  "conditions": "protein: recombinant;recombinant;recombinant; tags: His10-Flag3 N-terminal, removed by TEV;none;none; chain copies: 2;2;1; label: none (ethidium bromide stain); blunt (annealed complementary oligonucleotides)",
  "data": [
    {"binder": "B1", "values": [
      {"measurement": "binding result", "value": "binds"}
    ]}
  ]
}
